Results: the supplement of paper PMC10567573

B1: TRIM14 (parent)
chain: REQADSCREQLDIMNDLSNRVWSI

Variants of: B1
Assay: protein stability index of a GFP-peptide fusion (GPS, HEK-293T) (PSI 1-6); higher = more stable
Details: c terminus: a fixed tail appended
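Note: lentivirally expressed fusions sorted by FACS into six bins by GFP to DsRed ratio, PSI derived from sequencing read proportions per bin multiplied by bin number.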

Protein stability index of substitutions, site by site:
Q10: G 2.18, V 1.57, D 2.74, Y 2, H 2.03, I 2.63, F 2.18, R 2.38, W 1.98, M 1.81, K 2.16, C 2.24, P 2, S 1.87, A 1.74, N 2.24, E 2.21, T 2.39
D16: H 1.64, C 1.8, I 1.77, Q 2.18, A 2.28, S 2.19, L 1.68, Y 2.01, R 2.85, W 2.04, K 3.35, G 2.25, N 1.63, V 1.65, M 1.61, F 1.86, P 1.52, E 2.06, T 1.99
D12: K 1.92, N 1.6, F 2.71, R 2.06, Y 1.96, E 2.31, C 1.84, Q 1.59, S 2.21, W 2.21, P 2.31, I 2.24, H 2.05, A 2.05, V 1.9, M 1.43, T 2.53, G 1.77
L11: E 3.9, G 2.62, W 1.46, M 2.13, V 2.19, P 2.53, Y 1.73, I 2.53, K 2.38, F 1.87, D 3.08, T 3.1, R 3.11, C 2.17, A 2.1, H 2.24, Q 3.17, S 3.03, N 2.36
L17: I 2.59, F 2.13, H 2.71, E 3.3, K 2.59, G 2.96, A 2.46, D 3.18, M 2.63, C 2.53
I13: S 2.51, W 1.76, R 2.43, P 2.87, A 2.45, H 2.88, Q 2.8, L 1.72, V 2.02, F 1.9, Y 2.04, D 3.37, M 2.63, N 2.92, C 2.93, G 2.69, T 2.74, K 2.19, E 3.46
N15: H 2.54, Y 1.96, R 2.17, W 2.68, V 2.14, C 2.53, L 2.91, D 2.69, K 2.44, T 2.36, S 1.94, I 2.33, P 2.18, G 2.12, Q 1.89, A 2.25, F 2.39, M 2.58, E 2.76
M14: R 2.03, D 3.01, S 2.81, A 2.07, P 2.93, Y 1.72, F 1.76, C 2.36, K 2.33, L 1.99, I 2.2, Q 2.79, V 2.26, G 2.26, W 1.78, E 2.81, N 2.98, H 2.45, T 2.5
E9: M 2.66, L 2.75, K 1.66, Y 3.54, S 2.6, T 1.95, F 2.81, Q 1.53, H 1.48, C 1.84, D 2.77, I 2.44, G 1.38, W 3.53, A 2.03, R 1.85, N 2.05, P 2.3
R8: W 2.53, Q 2.64, S 2.41, Y 1.54, V 1.8, T 2.44, N 2.51, P 3.02
